The target in series [1] is microtubules assembled from porcine tubulin (porcine) (UniProt P02550). The series can be described thus: co-sedimentation.
The series “SEC-MALS” concerns the molecule itself. The experiment in a line: SEC-MALS.

The term Kd denotes a measure of binding affinity in units of concentration. The term stoichiometry N denotes the number of molecules, sites or subunits per partner or assembly.

B1: SPR2(1 to 500)-GFP (domain or fragment)
chain: MSTPTTSGSAAKPTRPARSSSLATRSCSNSGSLTSFQAMVELKQKILTSISKLADRDTYQIAVEDLEKTIQSLTPETLPMFLNCLYDSCSDPKPAVKKECLHLLSYVCSLHCDSTAAHLTKIIAQIVKRLKDSDSGVRDACRDTIGALSGIYLKGKEEGTNTGSASLAVGLFVKPLFEAMGEQNKVVQSGASMCMARMVESAASPPVTSFQKLCPRICKLLSNSSFLAKASLLPVVSSLSQVGAIAPQSLESLLESIHDCLGSTDWVTRKAAAETLTALASHSSGLIKEKTDSTITVLETCRFDKIKPVRESVTEALQLWKKISGKYVDGASDDSKLSASEQLGSEKNGEKRSNLADLMKKEASDGSTLSPDSASKGKGCFPEKAVGLLKKKAPVLSDKDFNPEFFQRLERRQSVEVVVPRRCKNNDEEESGLDDLNAMGSSNRLKNTQADDKQVKGRFDGNGSQARTSGDDKAGVVNGKETPGHHAPVSNTDNQSEGSF
Consider B1, for which the Kd in series [1] amounted to 17.4 µM.

B2: full-length SPR2 (SEC-MALS sample) (natural protein, Arabidopsis thaliana, UniProt Q9T041 1-864, looked up)
chain: MSTPTTSGSAAKPTRPARSSSLATRSCSNSGSLTSFQAMVELKQKILTSISKLADRDTYQIAVEDLEKTIQSLTPETLPMFLNCLYDSCSDPKPAVKKECLHLLSYVCSLHCDSTAAHLTKIIAQIVKRLKDSDSGVRDACRDTIGALSGIYLKGKEEGTNTGSASLAVGLFVKPLFEAMGEQNKVVQSGASMCMARMVESAASPPVTSFQKLCPRICKLLSNSSFLAKASLLPVVSSLSQVGAIAPQSLESLLESIHDCLGSTDWVTRKAAAETLTALASHSSGLIKEKTDSTITVLETCRFDKIKPVRESVTEALQLWKKISGKYVDGASDDSKLSASEQLGSEKNGEKRSNLADLMKKEASDGSTLSPDSASKGKGCFPEKAVGLLKKKAPVLSDKDFNPEFFQRLERRQSVEVVVPRRCKNNDEEESGLDDLNAMGSSNRLKNTQADDKQVKGRFDGNGSQARTSGDDKAGVVNGKETPGHHAPVSNTDNQSEGSFTSNRGNWSAIQRQLLQLERQQTNLMNMLQEFIGGSHDSMVTLEGRVRGLERIVEDMARDLSISSGRRANLTAGFGKYNSFANYPTGKYNGRAPGERGSQTDGAMRGRMWNSDMADDWFIPPHAASRNGQAGPRRSPRSEQYENEHMGNGRRGWDNKASGTIRFGEGPSARSVWQASKDEATLEAIRVAGEDGAVPRPTRVAVAPEAEAMGDDDNEGQERDPIWVSWSNAMHSLRVGDIDAAYAEVLCAGDQHLVIKLMDKTGPSLDQMSNEIANEALNFISQFLLDHSLYDICLSWSQQLLELVLQDGADTFGVPMELKTEILYNLQDACSTMDPPEDWEGPAPEQLVVQLASVWEIDLQQFDK
Take B2: the “stoichiometry N” value in “SEC-MALS” is 4.

Source of the values: PMC10980349 (The Plant Cell, 2023).
